Results on 30 sequences are retold here after the nanobody polyreactivity screen of Harvey et al. (2022).

A short description of this data set: yeast display, Sf9 membrane polyspecificity reagent, FACS + sequencing; frameworks hold sequencing errors. In short, it runs like this:
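Nanobodies from a synthetic yeast display library (Saccharomyces cerevisiae BJ5465), induced 36–48 hours with galactose, were stained 1 hour at 4 °C with 10% biotinylated, detergent-solubilized Sf9 membrane reagent, enriched on streptavidin microbeads, then FACS-sorted. Anti-HA (expression) and streptavidin (reagent binding) fluorescence set low and high (top ~1%) gates. Polyreactivity labels come from the gate of origin. Genes were colony-PCR amplified, MiSeq 2 × 250 sequenced and filtered by CDR length.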
In the case of “QVQLQECGGALVQAGGSLRLSCAASGTFSNSEKWLYCQAPGKERELVSTIGVGGSTNYADSVKGRFTISRDNAKNTVYLQLNSLKPEDTAVYHCAAYGAASYFHYYRGQGTQVTVSS”, the “polyreactivity (PSR sort gate)” value is “low polyreactivity”.

For “QVQLQECGGGLVQAGGSLRLSCAARGNIFDADIMGWYRQAPGKESELLASVTDGGSTNYADSVKGRFTISRDNAKNTVYLQMNSLKPEDSAVYYCAAIVYPDILTYFDYDYDYFYWGQGTQVTVGS”, the “polyreactivity (PSR sort gate)” value is recorded as “low polyreactivity”.

In the case of “QVQLQEGGGGLVQAGGSLRLSCAASGYISYGDDMGWYRQAPGEERELVASIGLDATTNYADSVKGRFTISRDNAKITVYLQMNSLKPEDTAVYYCAADVGSGVLCGYWGQGTQMTVSS”, the “polyreactivity (PSR sort gate)” value is “high polyreactivity”. As for “QVQLQEGGGGQVQAGGSLRLSCAASGYITNGDVMGWSRQAPGEERELVASSGLDATTNYADSVKGRFTISRDNAKMTVYLQMNSLKPEDTAVYYCAADVGSGVLCGYWGQGTQMTVSS”, the “polyreactivity (PSR sort gate)” value is reported as “high polyreactivity”. Consider “QVQLQEIGGGLVQAGGSLRQSYAASGYIFPSLAMGWYRQAQGKEREFVAAIGRGSTNNYADSVKGRFTISRDNAKNTAYQQMNSLKPEDTAVYYCAVVQRSKRTYPWYDYWGQGTQVTVSS”, for which the “polyreactivity (PSR sort gate)” value is “low polyreactivity”. Take “QVQLQERGDGLGQAVGSLRLSCAASGYISGYYYLGWYRQAPGKEGVVVAGIDAFGSRTNFADCVKGRFTISRDNAKNPVDLQMNSLKPEETAVYYCAARPDGDRLFSYWGQGPQVTVSS”: the “polyreactivity (PSR sort gate)” value was “low polyreactivity”. Take “QVQLQERGGGLVQAGGSLRLSCAASGIIYADGFMGLYRQAPGKEREFVATITGGGTSNYADSVKGRFTISRDNAKNTVYLQMNSLKPEDTAVYYCAVYFAWTIGFTYLGQGTQVTVSS”: the “polyreactivity (PSR sort gate)” value was “high polyreactivity”.

For “QVQLQERGVGLVQAGGTISLGYDMVWYRQAPGKEREFVAGIDTCAITYYADSVKGRFTNSRDNAKNTVYLQMNILNPEDTAVYYCAANQTHTYAHSYWGQGTQVTVSS”, the “polyreactivity (PSR sort gate)” value was “high polyreactivity”.

Turning to “QVQLQESAAGLVQAGGSLRMSCAASGNIFDADIMGWYRQEPGKERELVASITDGRRTNYADSVKGRYTISRDSEKNTVYLQMNSLKPEDTAVYYCAAIAYPVVPTYFDYDSDYFHWGQGTQVTVSS”, the “polyreactivity (PSR sort gate)” value is listed as “high polyreactivity”. As to “QVQLQESAGGLVQAGGSLRLRCSASGYISCDASMGWNRQAPGKERELAASITKGSSTNYADSVKGRFTIRDNAKNTVYLQMNSLKPEDTAVCYCAVTYPYWGDYTYWGQGTQVTVSR”, the “polyreactivity (PSR sort gate)” value was “low polyreactivity”. As for “QVQLQESAGGLVQAGGSLRLRCSASGYISCDASMGWYRQAPGKERELAASITKGSSTNYADSVKGRFTIRDNAKNTVYLQMNSLKPEDSAVCYCAVTYPYWGDYTYWGQGTQVTVSS”, the “polyreactivity (PSR sort gate)” value was “low polyreactivity”. Consider “QVQLQESAGGLVQAGGSLRLRCSASGYISCDASMGWYRQAPRKERELAASITKGSSTNYADSVKGRFTIRDNAKNSVYLQMNSLKPEDTAVFYCAVTYPYWGDYTYWGQGTQVTVSS”, for which the “polyreactivity (PSR sort gate)” value is listed as “low polyreactivity”. With “QVQLQESAGGLVQAGGSLRLRFSASAYNSCDASMGWYSQAPGKERELSASISKGSSTNYADSVKGRFTIRDNAKNSVYLQMNSLKPEVTAVCYCAVTYPYWGDYTYWGQGTQVSVSS” the entry was “low polyreactivity”. With “QVQLQESAGGMVQAGGSLRLRCSASGYISCDASMGWYRQAPGKERELAASITKGSRTNYADSVKGRFTIRDNAKNTVYLQMNSLKPEVTAVCYCAVTYPYWGDYTYWGQGTQVTVSS” the entry was “low polyreactivity”; with “QVQLQESCGGLVQAGGSLRLSCAASGTIFRFRYMAWHRQAPGKERELVAGINGGTTTYYADSVIGLFTISRDNAKNTVYLQMNSLKPDDTAVYNCAAGASRLTYYDYWGQGTQVTVIS”, “low polyreactivity”; with “QVQLQESGDGLVQAGGSLRLSSAASGTIFSDYGMGGYRQAPGKERELLAGISDGCNTNYTDSVKGRFTISRDNAHRVSADEQPETGGYRGVLLRGSERWLLFYVYWGQGTQVTVSS”, “high polyreactivity”. With “QVQLQESGDGLVQAVGSLRLSCAASGYISGYYYMGWYRQAPGKERELVAGIDAFGSSTNYADCVKGRFTIRRDNAKNTVYLLMNSPKPEDTAVFYCAAEFDDWDYHWYWGQGTQVTVSS”, the “polyreactivity (PSR sort gate)” value is reported as “low polyreactivity”. To “QVQLQESGDGLVQAVGSLRLSCAASGYISGYYYMGWYRQAPGKERELVAGIDAFGSSTNYADCVKGRLTISRDNAKNTVYLQMNSPKPEDTAVYYCAAEYDDWDYHWYWGQGTQVTVSS” belongs “low polyreactivity”; to “QVQLQESGGALVQAGGSLRLSCAASGYISAGRQMGWYRQAPGKELEFVATINGGATTNYADSVKGRFTISRDNAKNSVYLQMNSLKPEDTAVYYCAAVIWYVQDYTYWGQGAQVTVSS”, “high polyreactivity”. On to “QVQLQESGGCLVQADGSLRLSCAASGSIFGYYYMGWYRQAPGKDRELVATINICGITNYADSVKGRFTISRDNAKNTVYLQMNSLKPDDTAVYYCAADEYAQRDLGYWGQGTQVTVSS”, for which the “polyreactivity (PSR sort gate)” value is reported as “low polyreactivity”. As to “QVQLQESGGDLEQAGGSLLLSCTASGTISEVRVMGWYRQAPGKERELVATISYVTITYYADSVKGRFTISRDSEKHRVSADDEPQTGRYRGVLLSYYWGLGTQVTVSS”, the “polyreactivity (PSR sort gate)” value is “low polyreactivity”. Regarding “QVQLQESGGDLVQAGGSLRLSCAASGTIYGLTSMGSYRQRPGKEREFVAAITDGGNTNYADSVKGRFTISRDNAKNTVYLQMISLKPDETAVYYWAVLFSDDAYYAYWGQGTQVTVSS”, the “polyreactivity (PSR sort gate)” value was “low polyreactivity”. With “QVQLQESGGGLAQAGGSLRLSCAASGNIFDADIMGWYRKAPGKERELVGSITDGGSTNYVDSVKGRFTISRDNAKNTVHLQMNSLKPEDTAVYYCAAIAYPEIPTYFDYDSDCFNWGHGTQVTVSS” the entry was “high polyreactivity”. Consider “QVQLQESGGGLCRRAAASSGAASGTISYLNYMGWYRQAPGKEREFVAGINNGTTTNYADSVKGRFTISRDNAKNTVYLQMNSLKLEDTAVYYCAVDPYYTFYFWYWGQGTQLTVSS”, for which the “polyreactivity (PSR sort gate)” value was “high polyreactivity”. Consider “QVQLQESGGGLLQAGGCLSCTASGTILVQGDMGWYRHAPGKERELVATINDGASTYYADSVKGRFTISRDKAKNTVYLQKNSLKPDDTAVYYCAVFTDITTYFGYWGQGTQVTVSS”, for which the “polyreactivity (PSR sort gate)” value is on record as “low polyreactivity”. As for “QVQLQESGGGLLQAGGSLRLSYAASGYMFPYLAMGWYRQAPGKEREFVAAIGRGSTNNYADSVKGRFTISRDNAKNTAFQQMNSLKPEDTAVYYCAAAASPLTRHLYWGQGSQVTVSS”, the “polyreactivity (PSR sort gate)” value is “low polyreactivity”. For the sequence “QVQLQESGGGLMQAGGNLRLSCAASGYISTHYDMDWYRPAPGKERELVARIDDGAITNYADSVKGRFTISRDNAKNTVYLQMNSLKPEDTAVYYCAVYSGDDYYHDYWGQGTQVTVSS”, the “polyreactivity (PSR sort gate)” value is recorded as “low polyreactivity”. Consider “QVQLQESGGGLMQAGGSLRLSCAASGNIFLGHTKGWYRQAPGNEREFVAGIARGGNPYNADSVKGRFTISRNNAKNTVYLQKNSLKAEDTAVHYCGVQRSHASDYNYWGQGTQVTVSS”, for which the “polyreactivity (PSR sort gate)” value is recorded as “low polyreactivity”. With “QVQLQESGGGLMQAGGSQRLSCAASGSISYYSDMGWYRQAPGKEREFVAGIGYGTTTNYADSVKGRFTTSRDNAKNTVYLQMISMKTEDTAVYYCAAYQGNGYEFYYWGQGTQVTVRS” the entry was “low polyreactivity”; with “QVQLQESGGGLVEAGGSLRLSCAASGTISYAPHMGWYRQAPGKERELVAGITIGGTTNYADSVKGRFTISRDNAKNTVYLQMISLSPGDTALYYCAAHYDQYTPFYYWGQGSQVTVSS”, “low polyreactivity”.
